Data: article PMC10696041, “Identification of PCPE-2 as the endogenous specific inhibitor of human BMP-1/tolloid-like proteinases” (Nature Communications, 2023)

T1: procollagen C-proteinase enhancer 1, native form with no His tag (human, UniProt Q15113 26-449)
T1 construct: PCPE-1, native form with no His tag, used in the SPR analyses; The activity assays used another form, PCPE-1[Cter-8His]; also called PCPE-1
T1 sequence (looked up): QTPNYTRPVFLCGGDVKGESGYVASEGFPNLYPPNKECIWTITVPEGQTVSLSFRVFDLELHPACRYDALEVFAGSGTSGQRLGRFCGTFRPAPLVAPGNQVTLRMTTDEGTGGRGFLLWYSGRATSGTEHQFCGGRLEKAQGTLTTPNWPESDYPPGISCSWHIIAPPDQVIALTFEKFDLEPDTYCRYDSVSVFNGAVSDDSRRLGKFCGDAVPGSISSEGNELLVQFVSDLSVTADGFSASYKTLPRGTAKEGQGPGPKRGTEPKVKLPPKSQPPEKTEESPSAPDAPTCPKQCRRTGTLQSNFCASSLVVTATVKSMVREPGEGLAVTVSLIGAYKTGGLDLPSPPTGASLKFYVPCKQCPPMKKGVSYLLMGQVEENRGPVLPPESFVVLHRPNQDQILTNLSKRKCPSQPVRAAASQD

T2: bone morphogenetic protein-1 (human, UniProt P13497-2 121-730)
T2 construct: human BMP-1, the BMP-1 (BMP-1-1) splice variant of the BMP1 gene with CUB1-CUB2-EGF-CUB3 auxiliary domains; called full-length BMP-1 against the deletion mutants; also called BMP-1; BMP-1-1; source: Supplementary Methods
T2 sequence (looked up): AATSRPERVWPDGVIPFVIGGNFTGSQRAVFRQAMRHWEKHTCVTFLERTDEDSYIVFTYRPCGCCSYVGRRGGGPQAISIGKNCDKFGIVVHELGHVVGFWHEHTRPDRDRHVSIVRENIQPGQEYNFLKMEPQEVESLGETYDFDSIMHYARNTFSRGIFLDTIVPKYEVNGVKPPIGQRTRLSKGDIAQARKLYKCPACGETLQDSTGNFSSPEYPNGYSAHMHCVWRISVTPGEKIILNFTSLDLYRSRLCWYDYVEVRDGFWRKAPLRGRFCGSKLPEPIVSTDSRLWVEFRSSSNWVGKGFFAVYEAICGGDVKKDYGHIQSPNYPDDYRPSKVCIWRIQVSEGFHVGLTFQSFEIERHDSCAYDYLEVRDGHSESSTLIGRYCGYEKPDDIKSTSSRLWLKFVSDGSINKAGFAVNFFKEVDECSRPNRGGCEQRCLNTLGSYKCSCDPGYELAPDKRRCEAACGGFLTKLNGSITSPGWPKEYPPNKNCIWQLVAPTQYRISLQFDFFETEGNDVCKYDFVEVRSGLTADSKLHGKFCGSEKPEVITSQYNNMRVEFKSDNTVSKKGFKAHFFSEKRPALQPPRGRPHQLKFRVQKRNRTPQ

B1: mini-procollagen III (domain or fragment)
chain: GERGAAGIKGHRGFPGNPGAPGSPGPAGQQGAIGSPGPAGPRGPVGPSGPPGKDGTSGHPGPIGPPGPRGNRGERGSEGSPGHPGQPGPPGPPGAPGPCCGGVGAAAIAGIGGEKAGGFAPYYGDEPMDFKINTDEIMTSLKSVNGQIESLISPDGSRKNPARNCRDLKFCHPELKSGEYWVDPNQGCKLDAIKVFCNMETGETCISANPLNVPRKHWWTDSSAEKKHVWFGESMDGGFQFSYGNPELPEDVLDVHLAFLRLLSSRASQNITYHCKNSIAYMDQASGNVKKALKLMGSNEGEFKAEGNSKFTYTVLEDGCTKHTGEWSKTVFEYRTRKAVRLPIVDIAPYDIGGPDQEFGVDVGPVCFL
modifications: Homotrimer. The paper does not print the limits. The start assumes the last 33 Gly-X-Y triplets (helix end at 1196), recalled from earlier descriptions of this construct, followed by the intact …
B2: CUB1CUB2 domains of PCPE-2 generated from PCPE-2 3C (domain or fragment, human, UniProt Q9UKZ9 24-270, looked up)
chain: QSPERPVFTCGGILTGESGFIGSEGFPGVYPPNSKCTWKITVPEGKVVVLNFRFIDLESDNLCRYDFVDVYNGHANGQRIGRFCGTFRPGALVSSGNKMMVQMISDANTAGNGFMAMFSAAEPNERGDQYCGGLLDRPSGSFKTPNWPDRDYPAGVTCVWHIVAPKNQLIELKFEKFDVERDNYCRYDYVAVFNGGEVNDARRIGKYCGDSPPAPIVSERNELLIQFLSDLSLTADGFIGHYIFRPK
notes: human PCPE-2 from its beginning to amino-acid 270; an HRV 3C-protease site was inserted between amino-acids 270 and 271 of full-length human PCPE-2; Residues of the two 3C sites are probably left on both ends after cleavage; also called the CUB domains of PCPE-2; not shown: His6, N-terminal, cleaved
B3: procollagen C-proteinase enhancer-2 with N-terminal 6His-tag (natural protein, human, UniProt Q9UKZ9 24-415, looked up)
chain: QSPERPVFTCGGILTGESGFIGSEGFPGVYPPNSKCTWKITVPEGKVVVLNFRFIDLESDNLCRYDFVDVYNGHANGQRIGRFCGTFRPGALVSSGNKMMVQMISDANTAGNGFMAMFSAAEPNERGDQYCGGLLDRPSGSFKTPNWPDRDYPAGVTCVWHIVAPKNQLIELKFEKFDVERDNYCRYDYVAVFNGGEVNDARRIGKYCGDSPPAPIVSERNELLIQFLSDLSLTADGFIGHYIFRPKKLPTTTEQPVTTTFPVTTGLKPTVALCQQKCRRTGTLEGNYCSSDFVLAGTVITTITRDGSLHATVSIINIYKEGNLAIQQAGKNMSARLTVVCKQCPLLRRGLNYIIMGQVGEDGRGKIMPNSFIMMFKTKNQKLLDALKNKQC
notes: human PCPE-2, called full-length; two mutations of the bought clone (829 G>T, 874 C>A) were corrected; The most widely used PCPE-2 construct of the study; also called PCPE-2; PCPE-2[Nter-6His]; not shown: His6, N-terminal, kept

Key:
Conditions in all cases: both partners purified
[1] = biological target: T1, procollagen C-proteinase enhancer 1, …; assay: SPR; mini-procollagen III immobilised by amine coupling on CM5 (435, 437 or 651 RU); analytes in 10 mM HEPES pH 7.4, 0.15 M NaCl, 5 mM CaCl2, 0.05% P20, 25 °C; steady-state fit for constants, 50 nM single injections for the CUB1CUB2* mutants
[2] = biological target: B3; assay: as above
[3] = biological target: B2; assay: as above
[4] = biological target: T2, bone morphogenetic protein-1; assay: SPR; BMP-1 immobilised by amine coupling on CM5 (974, 1302 or 1492 RU); 10 mM HEPES pH 7.4, 0.15 M NaCl, 5 mM CaCl2, 0.05% P20, 25 °C; PCPE-2 1.56-100 nM with steady-state fit (heterogeneous ligand model for kinetics), 50 nM for comparisons
[5] = biological target: T2, bone morphogenetic protein-1; assay: enzyme inhibition assay (fluorogenic peptide cleavage); apparent; 7 nM BMP-1, 20 µM Mca-YVADAPK(Dnp)-OH, PCPE-2 0.07-690 nM, 50 mM HEPES pH 7.4, 5 mM CaCl2, 0.02% βOG, 37 °C; Morrison equation for tight-binding inhibitors with a constant for partial inhibition

Binder: B1
- Kd [1]: 2.2 nM
- Kd [2]: 11 nM
- Kd [3]: ~30 nM

Binder: B2
- binding result [4]: binds

Binder: B3
- Ki [5]: 2.8 nM
- Kd [4]: 8.4 nM
